From article doi:10.1101/134072
Where “and” joins values, the source holds several entries; their conditions need not be identical. Equal entries are not always repeated.

Tests used:
[1] = biological target: T1, TDP-43 N-terminal domain (TDP-43^NTD), residues 1-80, no tags, Q13148; experiment: AUC; settings: remark: other sources report otherwise
T1 chain: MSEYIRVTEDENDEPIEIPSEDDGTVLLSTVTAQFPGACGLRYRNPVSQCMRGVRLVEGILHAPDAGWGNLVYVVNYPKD

[2] = biological target: T1, TDP-43 N-terminal domain (TDP-43^NTD), …; experiment: SEC; settings: remark: other sources report otherwise

percent dimer at 2-5 μM [1]: 30%
percent tetramer at 20 μM [1]: 10%
stoichiometry N [1]: 2 and 4
stoichiometry N [2]: 2 and 4
B1: TDP-43 N-terminal domain (TDP-43^NTD), residues 1-80, no tags, Q13148 1-80 (domain or fragment)
chain: MSEYIRVTEDENDEPIEIPSEDDGTVLLSTVTAQFPGACGLRYRNPVSQCMRGVRLVEGILHAPDAGWGNLVYVVNYPKD
